The DeepSol protein solubility set

assay: soluble on expression in E. coli; label from the status in PepcDB or PDB records

| Sequence | soluble on expression in E. coli |
| --- | --- |
| GPGSMVALIDTSCYSADCTLSALVPQHAMKPYRLLVTMELIASLGLKRFCRTVVPPPIGIKELLTYHAEDYILNLGLHSNRSWLWNTEVSKVTFSGDCPPVEGIVEYSLSTVSGSLMAAVLLNSGAVDTAIHWGGGMHHAKCGECSGFCYVNDIVIAIIELLKCHDRVLYVDLDMHHGDGVDEAFCRSRRVFTLSLHKFGESFFPGTGHPRDVGIGNGRHYTMNLAMWDGVDDFYYTTVFERALRSIVKRFNPNVVVLQCGADSLAGDRLGHFNLSSWGHGKCVEEVKKLGLPMLVVGGGGYTLRNVAKLWAYETSILCGKRLPLNTVIPLHRMPLSGWLFEESPQLLVSQDEENKPLPGVNVQRSFRVIIEQIDKHCPNIMTV | not soluble |
| GPGSMYPGAVGCPWRRLDACVETSYSWALNVMSTNTSKAAVRQSKLTWDEGELTSARLKNDRNGKKARISASGSFRIRAMILACAPSSLAATPADNLPETASTLSFCEMLFNAGVAPLKTPAISSFEACTDVRVCVEAFKTGMPLFSSADEGASGNFFRYPPAAITTACSAETKLIDQSCFTRTTPFRHMGNAA | not soluble |
| GPGSMYRLFSCCKTNELKRLFSHALDASIKNEGVAQQRKRQVLPRRHRKLHKLTIREENEEGLRDFLPPKPVVPAGWKLEHVKGSNRFDLRKSVEIRDCGKEHLHAVAMMEVKEYEGTYRMDNGEREEEEYLFFTLFVQKNRFPGALEFGLTSIDMELVMDSLAIHNNREELEDAYGALSVSTSRNGTSNRIIEKSNLSCRSCRDNRYRGPMLSELDDDFSDEILDYLDERGVNNGFAEYMMAQAHFFEQEEYINWIRLLRQFAQ | not soluble |
| GPLGSGMRFMPVQSNFVINHGKLTNQLLQAVAKQTRNGDTQQWFQQEQTTYISRTVNRTLDDYCRSNNSVISKETKGHIFRAVENALQQPLDMNGAQSSIGHFLQSNKYFNQKVDEQCGKRVDPITRFNTQTKMIEQVSQEIFERNFSGFKVSEIKAITQNAILEHVQDTRL | soluble |
| GPLGSMTTKQTVSLFIWLPESKQKTLFISTKNHTQFELNNIIFDVTLSTELPDKEPNAIITKRTHPVGKMADEMRKYEKDHPKVLFLESSAIHDMMSSREEINALLIKNNIPIPNSFSVKSKEEVIQLLQSKQLILPFIVKPENAQGTFNAHQMKIVLEQEGIDDIHFPCLCQHYINHNNKIVKVFCIGNTLKWQTRTSLPNVHRCGIKSVDFNNQHLEDILSWPEGVIDKQDIIENSANRFGSKILEDPILLNLTSEAEMRDLAYKVRCALGVQLCGIDFIKENEQGNPLVVDVNVFPSYGGKVDFDWFVEKVALCYTEVAKI | soluble |
| GPQLDHVDIDLTDKAAMQDGARTFANYCMGCHSAKFQRYERVATDLGIPADLMMEKLVFTGAKIGDHMDIGMKPADAKTWFGAAPPDLTLVARVRGTDWLYSYLRSFYEDPKRPWGVNNVIFPNVGMPNVLAPLQGRQVIGCKQVQVVEDGKKQFDPLTGTPLTHEACDQLTVVPKTGELNEAQFDEKVKNLVTFLAYSANPNKLASERIG | not soluble |
| GSAAPPAKEIPEVLVDPRSRRRYVRGRFLGKGGFAKCFEISDADTKEVFAGKIVPKSLLLKPHQREKMSMEISIHRSLAHQHVVGFHGFFEDNDFVFVVLELCRRRSLLELHKRRKALTEPEARYYLRQIVLGCQYLHRNRVIHRDLKLGNLFLNEDLEVKIGDFGLATKVEYDGERKKTLCGTPNYIAPEVLSKKGHSFEVDVWSIGCIMYTLLVGKPPFETSCLKETYLRIKKNEYSIPKHINPVAASLIQKMLQTDPTARPTINELLNDEFFTSGYIPARLPITCLTIPPRFSIAPSSLDPSNRKPLTVLNK | soluble |
| GSAMRSAQVYRWQIPMDAGVVLRDRRLKTRDGLYVCLREGEREGWGEISPLPGFSQETWEEAQSVLLAWVNNWLAGDCELPQMPSVAFGVSCALAELTDTLPQAANYRAAPLCNGDPDDLILKLADMPGEKVAKVKVGLYEAVRDGMVVNLLLEAIPDLHLRLDANRAWTPLKGQQFAKYVNPDYRDRIAFLEEPCKTRDDSRAFARETGIAIAWDESLREPDFAFVAEEGVRAVVIKPTLTGSLEKVREQVQAAHALGLTAVISSSIESSLGLTQLARIAAWLTPDTIPGLDTLDLMQAQQVRRWPGSTLPVVEVDALERLL | soluble |
| GSDITSLYKKAGSEMNGPRCPVQTVGQWLESIGLPQYENHLMANGFDNVQFMGSNVMEDQDLLEIGILNSGHRQRILQAIQLLPKMRPIGHDGYHPTSVAEWL | soluble |
| GSEQQDLDDLAQVILSAVTSNTDTSKSARAQALSTALASSLADLLISESSGSSYQTQISALTNILSDCFVTTTGSNNPAFVSRVQTLIAVLSQSSSNAISGATGGSAFAQSQAFQQSA | soluble |
| GSFTFSPGQDIQLIPPLINLLMSIEPDVIYAGHDNTKPDTSSSLLTSLNQLGERQLLSVVKWSKSLPGFRNLHIDDQITLIQYSWMSLMVFGLGWRSYKHVSGQMLYFAPDLILNEQRMKESSFYSLCLTMWQIPQEFVKLQVSQEEFLCMKVLLLLNTIPLEGLRSQTQFEEMRSSYIRELIKAIGLRQKGVVSSSQRFYQLTKLLDNLHDLVKQLHLYCLNTFIQSRALSVEFPEMMSEVIAAQLPKILAGMVKPLLFHKK | soluble |
| GSGVDFYDVAFKVMLVGDSGVGKTCLLVRFKDGAFLAGTFISTVGIDFRNKVLDVDGVKVKLQMWDTAGQERFRSVTHAYYRDAHALLLLYDVTNKASFDNIQAWLTEIHEYAQHDVALMLLGNKVDSAHERVVKREDGEKLAKEYGLPFMETSAKTGLNVDLAFTAIAKELKRRSMKAP | soluble |
| GSHMAAELDSLLGQEKERFQVLPGRDKMLYVAAQNERDTLWARQVLARGDYDKNARVINENEENKRISIWLDTYYPQLAYYRIHFDEPRKPVFWLSRQRNTMSKKELEVLSQKLRALMPYADSVNITLMDDVTAAGQAEAGLKQQALPYSRRNHKGGVTFVIQGALDDVEILRARQFVDSYYRTWGGRYVQFAIELKDDWLKGRSFQYGAEGYIKMSPGHWYFPSPL | soluble |
| GSHMAKEEIIWESLSVDVGSQGNPGIVEYKGVDTKTGEVLFEREPIPIGTNNMGEFLAIVHGLRYLKERNSRKPIYSNSQTAIKWVKDKKAKSTLVRNEETALIWKLVDEAEEWLNTHTYETPILKWQTDKWGEIKADYGRK | soluble |
| GSHMARYDSLLQALGNTPLVGLQRLSPRWDDGRDGPHVRLWAKLEDRNPTGSIKDRPAVRMIEQAEADGLLRPGATILEPTSGNTGISLAMAARLKGYRLICVMPENTSVERRQLLELYGAQIIFSAAEGGSNTAVATAKELAATNPSWVMLYQYGNPANTDSHYCGTGPELLADLPEITHFVAGLGTTGTLMGTGRFLREHVANVKIVAAEPRYGEGVYALRNMDEGFVPELYDPEILTARYSVGAVDAVRRTRELVHTEGIFAGISTGAVLHAALGVGAGALAAGERADIALVVADAGWKYLSTGAYAGSLDDAETALEGQLWA | soluble |
| GSHMETVFTEKAPKPVGPYSQAIKVGNTLYVSGQIPIDPRTNEIVKGDIKVQTRQVLDNIKEIVKAAGFSLSDVAMAFVFLKDMNMFNDFNSVYAEYFKDKPPARVTVEVSRLPKDALIEIAVICSKG | soluble |
| GSHMFKCMEALGMESGEIHSDQITASSQYSTNWSAERSRLNYPENGWTPGEDSYREWIQVDLGLLRFVTAVGTQGAISKETKKKYYVKTYKIDVSSNGEDWITIKEGNKPVLFQGNTNPTDVVVAVFPKPLITRFVRIKPATWETGISMRFEVYGCKITDYPCSGMLGMVSGLISDSQITSSNQGDRNWMPENIRLVTSRSGWALPPAPHSYINEWLQIDLGEEKIVRGIIIQGGKHRENKVFMRKFKIGYSNNGSDWKMIMDDSKRKAKSFEGNNNYDTPELRTFPALSTRFIRIYPERATHGGLGLRMELLGCEVE | soluble |
| GSHMKEPKLSPKQERFIEEYFINDMNATKAAIAAGYSKNSASAIGAENLQKPAIRARIDARLK | soluble |
| GSHMKVLLLGFEFLPVKVGGLAEALTAISEALASLGHEVLVFTPSHGRFQGEEIGKIRVFGEEVQVKVSYEERGNLRIYRIGGGLLDSEDVYGPGWDGLIRKAVTFGRASVLLLNDLLREEPLPDVVHFHDWHTVFAGALIKKYFKIPAVFTIHRLNKSKLPAFYFHEAGLSELAPYPDIDPEHTGGYIADIVTTVSRGYLIDEWGFFRNFEGKITYVFNGIDCSFWNESYLTGSRDERKKSLLSKFGMDEGVTFMFIGRFDRGQKGVDVLLKAIEILSSKKEFQEMRFIIIGKGDPELEGWARSLEEKHGNVKVITEMLSREFVRELYGSVDFVIIPSYFEPFGLVALEAMCLGAIPIASAVGGLRDIITNETGILVKAGDPGELANAILKALELSRSDLSKFRENCKKRAMSFSWEKSAERYVKAYTGSIDRAFDFIL | soluble |
| GSHMLEMRIGHGFDVHAFGGEGPIIIGGVRIPYEKGLLAHSDGDVALHALTDALLGAAALGDIGKLFPDTDPAFKGADSRELLREAWRRIQAKGYTLGNVDVTIIAQAPKMLPHIPQMRVFIAEDLGCHMDDVNVKATTTEKLGFTGRGEGIACEAVALLIKATK | soluble |
| GSHMLITPRNIFRHELIGLSVRIARSVHRDIQGISGRVVDETRNTLRIEMDDGREITVPKGIAVFHFRTPQGELVEIDGRALVARPEERIKKKFRKP | soluble |
| GSHMPNYDTSIDIEDIKKILPHRYPFLLVDKVIYMQPNKTIIGLKQVSTNEPFFNGHFPQKQIMPGVLQIEALAQLAGILCLKSDDSQKNNLFLFAGVDGVRWKKPVLPGDTLTMQANLISFKSSLGIAKLSGVGYVNGKVVINISEMTFALSK | soluble |
| GSHMVLTKKKLQDLVREVDPNEQLDEDVEEMLLQIADDFIESVVTAACQLARHRKSSTLEVKDVQLHLERQWNMWI | soluble |
| GSHSLRYFVTAVSRPGHGKPRYMEVGYVDDTEFVRFDSDAENPRYEPRTPWMEQVEPEYWEGQTQIAKGNEQSSRVDLRTALRYYNQSAGGSHTIQRMRGCEVGSDGRLLRGYQQVAYDGRDYIALNEDLKTWTAADMAALITKHKWEQAGAAERDRAYLEGACVEWLRRYLELGNATLLRTDSPKAHVTHHSRPKDKVTLRCWALGFYPADITLTWQLNGEELTQDMELVETRPAGDGTFQKWASVVVPLGKEQNYTCHVYHEGLPEPLTLRW | soluble |
| GSKAEKTLGDFAAEYAKSNRSTCKGCMEKIEKGQVRLSKKMVDPEKPQLGMIDRWYHPGCFVKNREELGFRPEYSASQLKGFSLLATEDKEALKKQLPGVKSEGKRKGDEVDGVDEVAKKK | soluble |
| GSKEKLKEIKLLVCNIDGCLTNGHIYVSGDQKEIISYDVKDAIGISLLKKSGIEVRLISERACSKQTLSALKLDCKTEVSVSDKLATVDEWRKEMGLCWKEVAYLGNEVSDEECLKRVGLSAVPADACSGAQKAVGYICKCSGGRGAIREFAEHIFLLIEKVNNSCQK | soluble |
| GSMAGGVDGPIGIPFPDHSSDILSGLNEQRTQGLLCDVVILVEGREFPTHRSVLAACSQYFKKLFTSGAVVDQQNVYEIDFVSAEALTALMDFAYTATLTVSTANVGDILSAARLLEIPAVSHVCADLLDRQI | soluble |
| GSMNDRDFMRYSRQILLDDIALDGQQKLLDSQVLIIGLGGLGTPAALYLAGAGVGTLVLADDDDVHLSNLQRQILFTTEDIDRPKSQVSQQRLTQLNPDIQLTALQQRLTGEALKDAVARADVVLDCTDNMATRQEINAACVALNTPLITASAVGFGGQLMVLTPPWEQGCYRCLWPDNQEPERNCRTAGVVGPVVGVMGTLQALEAIKLLSGIETPAGELRLFDGKSSQWRSLALRRASGCPVCGGSNADPV | soluble |
